Assay results reported in a protein production outcome set (Wang et al. 2014).

Assay: label from the status in PepcDB records

**Q.** For “MSLHASAIESIETIIVDLPTIRPHKLAMHTMQNQTLVLIRLRCADGIEGLGESTTIGGLAYGNESPDSIKTNIDRFVAPLLIGQDASNINAAMLRLEQSIRGNTFAKSGIESALLDAQGKRLGLPVSELLGGRVRDALPVAWTLASGDTAKDIAEAQKMLDLRRHRIFKLKIGAGEVDRDLAHVIAIKKALGDSASVRVDVNQAWDEAVALRACRILGGNGIDLIEQPISRNNRAGMVRLNASSPAPIMADESIECVEDAFNLAREGAASVFALKIAKNGGPRATLRTAAIAEAAGIGLYGGTMLEGGIGTLASAHAFLTLNKLSWDTELFGPLLLTEDILAEPPVYRDFHLHVSKAPGLGLSLDEERLAFFRRDKTTPVLHHTEGHHHHHH”, which protein production is on record?
**A.** Its protein production is “not failed”.

**Q.** Which protein production does the source give for “MSLHFQILLWLSILFIIAGTILLVTMLKTKKEERKESYLGFTVIFLIFGFAILIYTFIFGIL” here?
**A.** The protein production was “failed”.

**Q.** With “MSLIDLYDLRMPQRTGTYVLHEENLAIIETGPSPSVPHLLAGLKALHIDPADIRYIIVTHIHLDHAGGVGVLLEHCPNATVIVHPKGKRHLADPSRLIAGAKAVYGEQFDALFDPIVPVPEERLLVKEDGETLVLSAERTLTFYDTPGHANHHFSIYDSYSGGVFTGDTIGVFYPQLQEAGLAFCLPSTSPNQFNPEAMKQSAERLEKLNPTRIYFGHFGALDQPEEAFRQLRFWLPKFVAAGKEVIARHPEAPAAEQAKAVTKLLHNDITAFLNECSIPASSPVYKVIELDLQVCAMGIIDYWRKQRLEHHHHHH” as the sequence, how does the protein production read?
**A.** The protein production was “failed”.

**Q.** For “MSLIPKFREFDRERHRTDYQKGMSYAEQQDFDMGFTIWFDHIEDLDLIEKDGTINRIVMMSTGLKDKNVKEIYESDIVRNLYGELYVVEWLDGSFVLTEFYNGGYDHYIIDSSTEYEVLGNIYENPELLEDDNHASNEGHHHHHH”, which protein production is on record?
**A.** Its protein production is “not failed”.

**Q.** With “MSLIYAQILAGGKGTRMGNVSMPKQFLPLNGKPIIVHTVEKFILNTRFDKILISSPKEWMNHAEDNIKKYISDDRIVVIEGGEDRNETIMNGIRFVEKTYGLTDDDIIVTHDAVRPFLTHRIIEENIDAALETGAVDTVIEALDTIVESSNHEVITDIPVRDHMYQGQTPQSFNMKKVFNHYQNLTPEKKQILTDACKICLLAGDDVKLVKGEIFNIKITTPYDLKVANAIIQERIANEGHHHHHH” as the sequence, how does the protein production read?
**A.** The protein production was “not failed”.

**Q.** For “MSLKAIGFEQPFKLSDGNLFKTFNLDIPEPKVHEILVKIQSISVNPVDTKQRLMDVSKAPRVLGFDAIGVVESVGNEVTMFNQGDIVYYSGSPDQNGSNAEYQLINERLVAKAPKNISAEQAVSLPLTGITAYETLFDVFGISRNRNENEGKTLLIINGAGGVGSIATQIAKAYGLRVITTASRNETIEWTKKMGADIVLNHKESLLNQFKTQGIELVDYVFCTFNTDMYYDDMIQLVKPRGHIATIVAFENDQDLNALKPKSLSFSHEFMFARPLNQTDDMIKHHEYLEDITNKVEQNIYQPTTTKVIEGLTTENIYQAHQILESNTMIGKLVINLNEGHHHHHH”, which protein production is on record?
**A.** Its protein production is “not failed”.

**Q.** For “MSLKARLALFFALSIGLALFFQGALSYVAFKGLLEADLDRSLLFYARALAEGRPSPRGEFAFRLAQGGAETKSPNFPDLPPLAPGRYWKEGWRVWVLEAPGGTLTVARYEPEALLALSRFRLVLFASGAALTLAFALLAGHLAGVALRPLSRLTEVARRVADSQDLSHRVPPEGGGELKTLAEAFNHMLERLEAFLEREKRFTRDAAHELRTPVAAALAQLEAAEGGYLSEGEALQATKEELLRMKRLVEALLVLAREGRVTPVPLDLAALAREEARAFGVPYRGPETLPYEGDPLLLAQALRNLLRNAFLHGEGKGVEVRLSQEGEDLVLEVKDEGPGMPEEALKEAGRPFFRASPKPGEGLGLSVAKKVAEAHGGALVLVPRKPTGLTARLLLPANPRLTGTP”, which protein production is on record?
**A.** Its protein production is “failed”.

**Q.** For “MSLKDMIDSIEQFAQTQADFPVYDCLGERRTYGQLKRDSDSIAAFIDSLALLAKSPVLVFGAQTYDMLATFVALTKSGHAYIPVDVHSAPERILAIIEIAKPSLIIAIEEFPLTIEGISLVSLSEIESAKLAEMPYERTHSVKGDDNYYIIFTSGTTGQPKGVQISHDNLLSFTNWMIEDAAFDVPKQPQMLAQPPYSFDLSVMYWAPTLALGGTLFALPKELVADFKQLFTTIAQLPVGIWTSTPSFADMAMLSDDFCQAKMPALTHFYFDGEELTVSTARKLFERFPSAKIINAYGPTEATVALSAIEITREMVDNYTRLPIGYPKPDSPTYIIDEDGKELSSGEQGEIIVTGPAVSKGYLNNPEKTAEAFFTFKGQPAYHTGDIGSLTEDNILLYGGRLDFQIKYAGYRIELEDVSQQLNQSPMVASAVAVPRYNKEHKVQNLLAYIVVKDGVKERFDRELELTKAIKASVKDHMMSYMMPSKFLYRDSLPLTPNGKIDIKTLINEVNNREGHHHHHH”, which protein production is on record?
**A.** Its protein production is “not failed”.

**Q.** For “MSLKIIAPTDKTITPSGTWSIGARAGDFVFIGGMHGTDRVTGKMVDGDEARIRRMFDNMLAAAEAAGATKADAVRLTVFVTDVAKYRPVVNKVQKDIWGDGPYPPRTVLQVPALDQGDIAEIDGTFYAPAEGHHHHHH”, which protein production is on record?
**A.** The protein production was “not failed”.

**Q.** With “MSLKKYQLVIVGYGGMGSYHVTLASAADNLEVHGVFDILAEKREAAAQKGLKIYESYEAVLADEKVDAVLIATPNDSHKELAISALEAGKHVVCEKPVTMTSEDLLAIMDVAKRVNKHFMAHQNRRWDEDFLIIKEMFEQKTIGEMFHLESRVHGANGIPGDWRHLKAHGGGMVLDWGVHLLDQLLFLVDSNVKSVSANLSFALGDEVDDGFVTFITFENGITAQIEVGTTNFIKLPRWYVKGTEGTGIIHDWDLSGEIVKPTALAKTSEPTPIKAGQGLTKTMAPPSEEATNTLSLPAPAKLAPSFYNNFVDVLNNTSEPIVQNEEVYQVLKLIEAIFEAAETNRTVHSIEGHHHHHH” as the sequence, how does the protein production read?
**A.** Its protein production is “not failed”.

**Q.** For “MSLKNKLQVKIPGKLYVAGEYAVVESGHTAILTAVNRYITLTLEDSERNELWIPHYENPVSWPIGGELKPDGEHWTFTAEAINIATTFLKSEGIELTPVKMVIETELIDQSGAKYGLGSSAAATVAVINALMTKFYPEISMLKKFKLAALSHLVVQGNGSCGDIASCMYGGWIAYTTFDQEWVKHRLAYKSLEWFMKEPWPMLQIETLEEPVPTFSVGWTGTPVSTGKLVSQIHAFKQEDSKNYQHFLTRNNEIMKQIIQAFHTKDEELLYSSIKENRRILQELGTKAGVNIETSLLKELADSAENMGGAGKSSGSGGGDCGIAFSKTKELAEKLVNEWEKLGIKHLPFHTGRVQITEGHHHHHH”, which protein production is on record?
**A.** The protein production was “not failed”.

**Q.** Which protein production does the source give for “MSLKTNFVKYERKDNKDLCEITLENDAGMAVKVLNYGATLEKVLLDGENMILSLNSPEDYSKERNFLGGTVGRIAGRVRAGQWKHGNEIHQLPLNDGDNHIHGGIGTDMHVWDFRPSCDSEHARVDLTLFDPDGNNDYPGNLKLHARYELDNENNLHYLLEAVSDKLTIFNPVNHTYFNLGERAEDLNLQMNADYYLPVDEAGLPDRGMAEVAGTAFDFRKTKRIGDALNSDDSQIKLRNGLDHPFILNGNNPAALLSSNKHRLIVKTNAPALVLYAGNHFNHTGIVNNIGQYDGITFEAQCPPAEGNDLGQITLLPFEKFKRTVDWKFEEGHHHHHH” here?
**A.** Its protein production is “not failed”.

**Q.** Which protein production does the source give for “MSLKTTTSSTPSDRITWVRISSCYLPLATPISDAKVLTGRQKPMTEIAILFAEIETAGGHQGLGFSYSKRAGGPGQFAHAREIAPALIGEDPSDIAKLWDKLCWAGASAGRSGLSTQAIGAFDVALWDLKAKRAGLSLAKLLGSYRDSVRCYNTSGGFLHTPIDQLMVNASASIERGIGGIKLKVGQPDGALDIARVTAVRKHLGDAVPLMVDANQQWDRPTAQRMCRIFEPFNLVWIEEPLDAYDHEGHAALALQFDTPIATGEMLTSAAEHGDLIRHRAADYLMPDAPRVGGITPFLKIASLAEHAGLMLAPHFAMELHVHLAAAYPREPWVEHFEWLEPLFNERIEIRDGRMLVPTRPGLGLTLSGQVKAWTREEAQVGTRPEGHHHHHH” here?
**A.** Its protein production is “not failed”.

**Q.** For “MSLLKIFYVILGFISLGLGLIGIILPILPTTPFLLLTAFCFVKGSDKFDKWFKGTKIYKNHLESFEKNRAMTLKTKLTILLTADIMLLFPLILSKSIHLKIFIVILMMFKFYYFIFRIKTVKAGDVVEQNR”, which protein production is on record?
**A.** Its protein production is “failed”.

**Q.** For “MSLLNIKFTDNAVDYLKRREILDKILILITDDGGGKYSIQGGSCSMGAHFSIIWLDKVDPDYPVKIANEQNVKIYTSDFDKTMLGPNMVMDYNAGSLSLSSDEGLLDGSVDIGNGAALLKANKNVQMGINRQCEGHHHHHH”, which protein production is on record?
**A.** Its protein production is “not failed”.

**Q.** Which protein production does the source give for “MSLLQQADRLHRQLLRTGPAQAPCWEPPVDMIETESAVLIYVALPGVAAGDVAVRFDPDGISISGVRPLPALRNARIHGLEIPYGRFQRRIRLPLHALEPEAPTLADGCLTLTLKKLREAPLEHHHHHH” here?
**A.** Its protein production is “failed”.

**Q.** For “MSLNDNNTILGFDVNLICDFFLNTERQGPGSPEVTLKALSFIDNLTNKSLIADLGCGTGGQTMILAQHVPGKITGIDFFPGFIERFNKNAEKLNLQNRVKGIVGSMDDLSFEKDSLDLIWSEGAIYNIGFERGLKEWRNYLKPGGYLAVSESVWFTDQRPAEIHDFWMSAYTEIDTVPNKVAQIQKAGYIPVATFILPENCWIEHYFAPQAKAEEIFRRKHAGSRIVEELITSNHHEAELYSKYKAYYGYAFFICKKGFSLREGHHHHHH”, which protein production is on record?
**A.** The protein production was “not failed”.

**Q.** For “MSLPHLSSGEVASVLPLGKQLTQTPSAALFKEHRLEVMRMVLPAGKQVGSHSVAGPSTIQCLEGEVEIGVDGAQRRLHQGDLLYLGAGAAHDVNAITNTSLLVTVVLVDRGGS”, which protein production is on record?
**A.** The protein production was “not failed”.

**Q.** Which protein production does the source give for “MSLPQSKVLTSFGTANRTPRAAETHPLTWRLRDDGQPVWLEEYQTKQGYDAVRKALGQMSPDEIVSTVKDAGLKGRGGAGFPTGVKWGLMPKDESMNIRYLLCNADEMEPNTWKDRLLMEQLPHLLIEGMIISAKALKAYRGYIFLRGEYVDAAINLRRAVEEAKAAGLLGKNILGSGFDFELFVHTGAGRYICGEETALINSLEGRRANPRAKPPFPAVSGVWGKPTCVNNVETLCNVPAIIGNGVAWYHTLALPGSEDHGTKLMGFSGKVNNPGVWELPFGITARELFEGYAGGMRSGYRLKAWQPGGAGTGFLLPEHLDAQMYTAGIGKVGTRMGTGLAMAVDDSISMVSLLRNMEEFFARESCGWCTPCRDGLPWSVKLLRSLERGEGQEGDLATLEQLCNFLGPGKTFCAHAPGAVEPLASAIKYFRSEFEAGIKGSGDNRKSIKGIQPNLLGERWLEHHHHHH” here?
**A.** The protein production was “not failed”.

**Q.** With “MSLQFNPIGLFLVALILLGVLGNNNSITISATLLLLMQQTALNKYIPMLEKYGLTIGIIILTIGVLSPIVSGKINLPNLSEILSWKMALAISIGIFVAWLGGRGINLMATQPLIITGLLIGTIIGIAFFGGIPVGPLIAAGIMSLLVGKL” as the sequence, how does the protein production read?
**A.** Its protein production is “failed”.

**Q.** Which protein production does the source give for “MSLQLINLNSDLKRLRDEGYFIQVKNGFLIMRDVPYVNSNRHVCRGTIISSLSLAGDRTRIPDTHVVHFDGDMPCNAEGEALNAVVLQSSIFDLGRGITAKHMFSSKPKSGYTDYYHKMTTYASILSGHAEVLNSGISPKVFSTPEDEEDSVFNYTETASGRVGIGALSDLLTEE” here?
**A.** Its protein production is “failed”.

**Q.** With “MSLQLRLALNQIDSTVGDIAGNAEAILRWTRHSAEQGAHLVAFPEMALTGYPVEDLALRSSFVEASRTALRELAARLAEEGFGELPVLVGYLDRSESAQPKYGQPAGAPRNAAAVLHRGRVALTFAKHHLPNYGVFDEFRYFVPGDTMPIVRLHGVDIALAICEDLWQDGGRVPAARSAGAGLLLSVNASPYERDKDDTRLELVRKRAQEAGCTTAYLAMIGGQDELVFDGDSIVVDRDGEVVARAPQFSEGCVVLDLDLPAAEAEPPTGVVDDGLRIDRLVISEEPLPAYEAELAGGYADRLDADEEVYSALVVGLRAYVAKNGFRSVLIGLSGGIDSALVAAIACDALGAQNVYGVSMPSKYSSDHSKGDAAELARRTGLNFRTVSIEPMFDAYMASLGLTGLAEENLQSRLRGTTLMAISNQEGHIVLAPGNKSELAVGYSTLYGDSVGAYGPIKDVYKTSIFRLAEWRNRAAAERGQTPPIPEASITKPPSAELRPGQVDTDSLPDYPVLDAILELYVDRDTGADAIVAAGYDRELVVKTLRMVDTAEYKRRQYPPGTKISAKGFGKDRRLPITNRWREGHHHHHH” as the sequence, how does the protein production read?
**A.** Its protein production is “not failed”.
